Laboratory results taken from FireProtDB (doi:10.1021/bi034721x).
Values joined by “and” are separate entries in the source; they are usually repeats but may differ in a detail not shown here. Equal entries are not always repeated.

Details: Rattus norvegicus; pH 7.4; Thermal; DSC; sodium phosphate 10 mM; NaCl 0.20 M; whole UniProt chain shown

B1: Parvalbumin alpha wild type, P02625 (protein)
chain: MSMTDLLSAEDIKKAIGAFTAADSFDHKKFFQMVGLKKKSADDVKKVFHILDKDKSGFIEEDELGSILKGFSSDARDLSAKETKTLMAAGDKDGDGKIGVEEFSTLVAES
unfolding enthalpy (calorimetric): 76 kcal/mol and 72 kcal/mol and 52 kcal/mol
